Measurements taken from FireProtDB (doi:10.1182/blood-2007-11-122457).

Details: Homo sapiens; pH 7.4; Thermal; DSC; Sodium phosphate 10mM; NaCl 130 mM; transition: 2; reversible: yes; structure 1OWA

| Substance | Tm [°C] | change of melting temperature, mutant - wild type (higher = more stable) [°C] |
| --- | --- | --- |
| Spectrin alpha chain, erythrocytic 1, P02549 I24T | 54.4 | -0.2 |
| Spectrin alpha chain, erythrocytic 1, P02549 L49F | 55.4 | 0.8 |
| Spectrin alpha chain, erythrocytic 1, P02549 I24S | 53.2 | -1.4 |
| Spectrin alpha chain, erythrocytic 1, P02549 R28L | 53.1 | -1.5 |
| Spectrin alpha chain, erythrocytic 1, P02549 K48R | 54.7 | 0.1 |
| Spectrin alpha chain, erythrocytic 1, P02549 R28H | 53.6 | -1 |
| Spectrin alpha chain, erythrocytic 1, P02549 R45S | 55.1 | 0.5 |
| Spectrin alpha chain, erythrocytic 1, P02549 R28S | 53.3 | -1.3 |
| Spectrin alpha chain, erythrocytic 1, P02549 V31A | 54.5 | -0.1 |
| Spectrin alpha chain, erythrocytic 1, P02549 R34W | 49.1 | -5.5 |
| Spectrin alpha chain, erythrocytic 1, P02549 G46V | 52.8 | -1.8 |
| Spectrin alpha chain, erythrocytic 1, P02549 R45T | 54.6 | 0 |
